Measured values published in US20240043568A1 (KEYMED BIOSCIENCES, published 2024).

T1: FcγRIIAH131 with His tag (UniProt P12318 34-218)
T1 construct: Bought protein; also called Fcγ RIIAH131 (Sino Biological #10374-H08H1)
T1 sequence (looked up): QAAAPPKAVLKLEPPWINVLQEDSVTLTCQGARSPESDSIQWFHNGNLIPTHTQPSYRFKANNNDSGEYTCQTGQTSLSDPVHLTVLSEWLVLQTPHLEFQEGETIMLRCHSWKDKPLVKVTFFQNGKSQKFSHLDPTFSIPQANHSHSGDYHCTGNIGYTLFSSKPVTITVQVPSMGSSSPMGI


Tests used:
[1] = biological target: T2, human GPC3 on cells (human, UniProt P51654 25-563); assay: flow cytometry, HepG2 cells
T2 construct: whole, on cells; One molecule is used for both CHO-hGPC3 transfectants and GPC3+ HepG2 cells; The assay field names the cell; also called CHO-hGPC3 (clone 2B10); CHO-human GPC3
Description: HepG2 cells in the logarithmic growth phase were taken, added with 200 μg/mL of murine IgG (Jackson ImmunoResearch, 115-005-03), and blocked on an ice bath for 30 min. The cells were adjusted to 5×10⁵ cells/mL with 4% calf serum and added to a 96-well U-shaped plate at 100 μl/well. The centrifugation was performed at 300 g for 5 min. The supernatant was discarded. 100 μL of gradient diluted antibody (initial concentration: 1800 nM, 3-fold dilution, 10 gradients) was added to each well, and incubated at 4° C. for 60 min. The primary antibody was washed, added with Alexa Fluro647 labeled goat anti-human IgG Fc (1:300 dilution) 50 μL/well, and incubated on ice for 20 min. After washing once, PI solution was added at 50 μL/well. Incubation was performed for 5 min before detection by flow cytometry. The GPC3×CD3κλ bispecific antibody can bind to GPC3+ tumor cell HepG2 with high affinity.

[2] = biological target: T3, human CD3 on T cells (human, UniProt P07766 23-207); assay: flow cytometry, Jurkat cells
T3 construct: whole, on cells; The target is the native CD3 complex on cells; The recombinant antigen used elsewhere is the εγ heterodimer; also called CD3 on Jurkat cells; CD3 on human peripheral blood CD4+ and CD8+ T cells
Description: Jurkat cells in the logarithmic growth phase were taken, added with 200 μg/mL of murine IgG (Jackson ImmunoResearch, 115-005-03), and incubated on ice for 30 minutes. The cells were adjusted to 5×10⁵ cells/mL with 4% calf serum and added to a 96-well U-shaped plate at 100 μl/well. The centrifugation was performed at 300 g. The supernatant was discarded. 100 μL of gradient diluted antibody (initial concentration: 1800 nM, 3-fold dilution, 10 gradients) was added to each well, and incubated at 4° C. for 60 min. The secondary antibody Alexa Fluro647 labeled goat anti-human IgG Fc (1:300 dilution) was added at 50 μL/well and incubated on ice for 20 min. After washing once, PI solution was added at 50 μL/well. Incubation was performed for 5 min before detection by flow cytometry (BD C6).

[3] = biological target: T4, recombinant human GPC3 protein (human, UniProt P51654 25-563); assay: SPR (Biacore T200), antibody on Protein A chip, GPC3 as analyte
T4 construct: also called human GPC3 full-length protein; recombinant GPC3 protein
Description: (§1) The antibodies with a concentration of 1 μg/ml were captured on the Protein A chip (GE healthcare). Different concentrations of recombinant human or cynomolgus monkey GPC3 protein (5 μg/ml as the initial concentration, 2-fold gradient, a total of 6 concentration points) as the analyte was flowed through the chip at a flow rate of 30 μL/min, with an association time of 120 seconds, and a dissociation time of 400 seconds. The changes in the SPR signal during the association and dissociation of the protein were recorded. The kinetic constants were obtained by fitting with 1:1 binding model using Biacore T200 evaluation software.

[4] = biological target: recombinant cynomolgus monkey GPC3 full-length protein (cynomolgus monkey, UniProt A0A2K5VK50 24-558); assay: as above
Description: as §1

[5] = biological target: T5, FcγRI with His tag (UniProt P12314 16-288); assay: SPR, His-tagged FcγRI captured by anti-His antibody on the chip, antibody as analyte [row FcγRI, column GPC3×CD3 κλ002]
T5 construct: Bought protein; also called FcγRI (Sino Biological #10256-H08H)
Description: (§2) 50 μg/mL His-Tag antibodies were conjugated to a CMS chip through amino groups, and recombinant proteins FcγRI, FcγRIIAH131, and FcγRIIIAV158 with His tags (Sino Biological, #10256-H08H/10374-H08H1/10389-H08H1) were respectively captured for a capture time of 40 s at a flow rate of 10 μL/min. After the baseline was stable, the gradient-diluted antibody (the initial concentration of 37.5 μg/mL, 2-fold dilution) flowed through the chip at a flow rate of 30 μL/min, with a binding time of 120 s and a dissociation time of 200 s. The affinity constants were obtained by fitting them with Biacore evaluation software. It can be seen from FIG. 22 that the GPC3×CD3κλ bispecific antibody has no binding to FcγRI, FcγRIIAH131, and FcγRIIIAV158; The wild-type IgG4 control antibody can bind to FcγRI with high affinity and weakly bind to Fcγ RIIAH131.

[6] = biological target: T1, FcγRIIAH131 with His tag; assay: SPR, His-tagged FcγRIIAH131 captured by anti-His antibody on the chip, antibody as analyte [row FcγRIIAH131, column GPC3×CD3 κλ002]
Description: as §2

[7] = biological target: T6, FcγRIIIAV158 with His tag (UniProt P08637 17-208); assay: SPR, His-tagged FcγRIIIAV158 captured by anti-His antibody on the chip, antibody as analyte [row FcγRIIIAV158, column GPC3×CD3 κλ002]
T6 construct: Bought protein; also called FcγRIIIAV158 (Sino Biological #10389-H08H1)
Description: as §2

[8] = biological target: T5, FcγRI with His tag; assay: SPR, His-tagged FcγRI captured by anti-His antibody on the chip, antibody as analyte [row FcγRI, column GPC3×CD3 κλ003]
Description: as §2

[9] = biological target: T1, FcγRIIAH131 with His tag; assay: SPR, His-tagged FcγRIIAH131 captured by anti-His antibody on the chip, antibody as analyte [row FcγRIIAH131, column GPC3×CD3 κλ003]
Description: as §2

[10] = biological target: T6, FcγRIIIAV158 with His tag; assay: SPR, His-tagged FcγRIIIAV158 captured by anti-His antibody on the chip, antibody as analyte [row FcγRIIIAV158, column GPC3×CD3 κλ003]
Description: as §2

T5 sequence (P12314 16-288 limits assumed): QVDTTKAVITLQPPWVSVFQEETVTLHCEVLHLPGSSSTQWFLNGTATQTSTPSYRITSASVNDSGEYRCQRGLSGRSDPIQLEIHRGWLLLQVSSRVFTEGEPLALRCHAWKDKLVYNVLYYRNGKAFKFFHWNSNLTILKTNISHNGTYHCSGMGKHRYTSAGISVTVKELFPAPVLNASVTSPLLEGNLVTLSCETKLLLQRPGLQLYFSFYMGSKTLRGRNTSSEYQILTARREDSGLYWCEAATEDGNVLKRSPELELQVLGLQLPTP
T6 sequence (P08637 17-208 F176V limits assumed): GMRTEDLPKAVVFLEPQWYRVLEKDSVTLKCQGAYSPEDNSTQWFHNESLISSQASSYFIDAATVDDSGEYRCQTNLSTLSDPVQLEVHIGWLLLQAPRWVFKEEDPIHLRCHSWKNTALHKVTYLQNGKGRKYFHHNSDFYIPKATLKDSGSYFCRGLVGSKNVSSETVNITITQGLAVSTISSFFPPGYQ

| Binder | EC50 [1] | EC50 [2] | Kd [3] | Kd [4] | binding result [5] | binding result [6] | binding result [7] | binding result [8] | binding result [9] | binding result [10] |
| --- | --- | --- | --- | --- | --- | --- | --- | --- | --- | --- |
| GPC3×CD3 κλ002 (bispecific antibody, human IgG4 S228P, kappa, lambda, also called GPC3 x CD3 κλ002; GPC3×CD3κλ bispecific antibody) light 1: DVVMTQSPLSLPVTPGEPASISCRSSQSIVHSNGNTYLEWYLKKPGQSPQLLIYKVSNRFSGVPDRFSGSGSGTDFTLKISRVEAEDVGVYFCLQVTHVPLTFGQGTKLEIKRTVAAPSVFIFPPSDEQLKSGTASVVCLLNNFYPREAKVQWKVDNALQSGNSQESVTEQDSKDSTYSLSSTLTLSKADYEKHKVYACEVTHQGLSSPVTKSFNRGEC heavy 1: QVQLVQSGAEVKKPGSSVKVSCKASGYTFADYEIHWVREAPGQGLEWMGAIHPGSGGTAYAQKFQGRVTLTADESSTTAYMELSSLRSEDTAVYYCTRYYSFAYWGQGTLVTVSSASTKGPSVFPLAPCSRSTSESTAALGCLVKDYFPEPVTVSWNSGALTSGVHTFPAVLQSSGLYSLSSVVTVPSSSLGTKTYTCNVDHKPSNTKVDKRVESKYGPPCPPCPAPEFEGGPSVFLFPPKPKDTLMISRTPEVTCVVVDVSQEDPEVQFNWYVDGVEVHNAKTKPREEQFNSTYRVVSVLTVLHQDWLNGKEYKCKVSNKGLASSIEKTISKAKGQPREPQVCTLPPSQEEMTKNQVSLSCAVKGFYPSDIAVEWESNGQPENNYKTTPPVLDSDGSFFLVSKLTVDKSRWQEGNVFSCSVMHEALHNHYTQKSLSLSLGK light 2: QAVVTQEPSLTVSPGGTVTLTCRSSTGAVTTSNYANWVQEKPGQAPRGLIGGTNKRAPWTPARFSGSLLGGKAALTITGAQAEDEAEYYCVLWYSNLWVFGGGTKLTVLGQPKAAPSVTLFPPSSEELQANKATLVCLISDFYPGAVTVAWKADSSPVKAGVETTTPSKQSNNKYAASSYLSLTPEQWKSHRSYSCQVTHEGSTVEKTVAPTECS heavy 2: EVQLVESGGGLVQPGGSLRLSCAASGFTFNTYAMNWVRKAPGKGLEWVGRIRSKYNNYATYYADSVKDRFTISRDDSKNSLYLQMNSLKTEDTAVYYCVRHGNFGNSYVSWFAYWGQGTLVTVSSASTKGPSVFPLAPCSRSTSESTAALGCLVKDYFPEPVTVSWNSGALTSGVHTFPAVLQSSGLYSLSSVVTVPSSSLGTKTYTCNVDHKPSNTKVDKRVESKYGPPCPPCPAPEFEGGPSVFLFPPKPKDTLMISRTPEVTCVVVDVSQEDPEVQFNWYVDGVEVHNAKTKPREEQFNSTYRVVSVLTVLHQDWLNGKEYKCKVSNKGLASSIEKTISKAKGQPREPQVYTLPPCQEEMTKNQVSLWCLVKGFYPSDIAVEWESNGQPENNYKTTPPVLDSDGSFFLYSKLTVDKSRWQEGNVFSCSVMHEALHNHYTQKSLSLSLGK | 2.1 nM | 36 nM | 1.35 nM | 1.6 nM | no binding | no binding | no binding |  |  |  |
| GPC3×CD3 κλ003 (bispecific antibody, human IgG4 S228P, kappa, lambda, also called GPC3 x CD3 κλ003; GPC3×CD3κλ bispecific antibody) light 1: DVVMTQSPLSLPVTPGEPASISCRSSQSIVHSNGNTYLEWYLKKPGQSPQLLIYKVSNRFSGVPDRFSGSGSGTDFTLKISRVEAEDVGVYFCLQVTHVPLTFGQGTKLEIKRTVAAPSVFIFPPSDKKLKSGTASVVCLLNNFYPREAKVQWKVDNALQSGNSQESVTEQDSKDSTYSLSSTLTLSKADYEKHKVYACEVTHQGLSSPVTKSFNRGEC heavy 1: QVQLVQSGAEVKKPGSSVKVSCKASGYTFADYEIHWVREAPGQGLEWMGAIHPGSGGTAYAQKFQGRVTLTADESSTTAYMELSSLRSEDTAVYYCTRYYSFAYWGQGTLVTVSSASTKGPSVFPLAPCSRSTSESTAALGCLVEDYFPEPVTVSWNSGALTSGVHTFPAVLQSSGLYSLSSVVTVPSSSLGTKTYTCNVDHKPSNTKVDERVESKYGPPCPPCPAPEFEGGPSVFLFPPKPKDTLMISRTPEVTCVVVDVSQEDPEVQFNWYVDGVEVHNAKTKPREEQFNSTYRVVSVLTVLHQDWLNGKEYKCKVSNKGLASSIEKTISKAKGQPREPQVCTLPPSQEEMTKNQVSLSCAVKGFYPSDIAVEWESNGQPENNYKTTPPVLDSDGSFFLVSKLTVDKSRWQEGNVFSCSVMHEALHNHYTQKSLSLSLGK light 2: QAVVTQEPSLTVSPGGTVTLTCRSSTGAVTTSNYANWVQEKPGQAPRGLIGGTNKRAPWTPARFSGSLLGGKAALTITGAQAEDEAEYYCVLWYSNLWVFGGGTKLTVLGQPKAAPSVTLFPPSSEELQANKATLVCLISDFYPGAVTVAWKADSSPVKAGVETTTPSKQSNNKYAASSYLSLTPEQWKSHRSYSCQVTHEGSTVEKTVAPTECS heavy 2: EVQLVESGGGLVQPGGSLRLSCAASGFTFNTYAMNWVRKAPGKGLEWVGRIRSKYNNYATYYADSVKDRFTISRDDSKNSLYLQMNSLKTEDTAVYYCVRHGNFGNSYVSWFAYWGQGTLVTVSSASTKGPSVFPLAPCSRSTSESTAALGCLVKDYFPEPVTVSWNSGALTSGVHTFPAVLQSSGLYSLSSVVTVPSSSLGTKTYTCNVDHKPSNTKVDKRVESKYGPPCPPCPAPEFEGGPSVFLFPPKPKDTLMISRTPEVTCVVVDVSQEDPEVQFNWYVDGVEVHNAKTKPREEQFNSTYRVVSVLTVLHQDWLNGKEYKCKVSNKGLASSIEKTISKAKGQPREPQVYTLPPCQEEMTKNQVSLWCLVKGFYPSDIAVEWESNGQPENNYKTTPPVLDSDGSFFLYSKLTVDKSRWQEGNVFSCSVMHEALHNHYTQKSLSLSLGK | 2.5 nM | 26 nM | 2.11 nM | 1.91 nM |  |  |  | no binding | no binding | no binding |
